Results from publication PMC6166713.

Experiments:
Assay in all cases: BLI; Octet Red; GST-WASP variants loaded on anti-GST sensors (10 μg/ml), dipped into a dilution range of Cdc42·GMPPNP; 50 mM Tris-HCl pH 7.5, 150 mM NaCl, 1 mM MgCl2, 0.02% Tween 20, 0.1% BSA, 0.05% sodium azide, 25 °C; GST-alone sensors subtracted
[1] = target: GST-WASP(201–321) K230A/K231A/K232A (UniProt P42768)
[2] = target: GST-WASP(201–321) K230A/K232A (UniProt P42768)
GST-WASP(201–321) K231A = GST-WASP(201–321) K231A (UniProt P42768)
[3] = target: GST-WASP(201–321) K225A/K226A (UniProt P42768)
[4] = target: GST-WASP(201–321) wild type (UniProt P42768)
GST-WASP(201–321) K232A = GST-WASP(201–321) K232A (UniProt P42768)
[5] = target: GST-WASP(201–321) K225A/K226A/R227A (UniProt P42768)
GST-WASP(201–321) K230A = GST-WASP(201–321) K230A (UniProt P42768)
[6] = target: GST-WASP(201–321) K230A/K231A (UniProt P42768)
[7] = target: GST-WASP(201–321) K225A/K226A/R227A/K230A/K231A/K232A (UniProt P42768)
GST-WASP(201–321) K225A = GST-WASP(201–321) K225A (UniProt P42768)

Question: Which results are given for “Cdc42 Δ7 Q61L (from UniProt P60953 1-191) (natural protein)”?
Answer: Kd [1]: 307 nM; koff [1]: 0.0914 s⁻¹; kon [1]: 300000 M⁻¹ s⁻¹; Kd [2]: 142 nM; koff [2]: 0.067 s⁻¹; kon [2]: 484000 M⁻¹ s⁻¹; Kd (GST-WASP(201–321) K231A): 89.6 nM; koff (GST-WASP(201–321) K231A): 0.0438 s⁻¹; kon (GST-WASP(201–321) K231A): 509000 M⁻¹ s⁻¹; Kd [3]: 59.6 nM; koff [3]: 0.0295 s⁻¹; kon [3]: 490000 M⁻¹ s⁻¹; Kd [4]: 63.7 nM; koff [4]: 0.0417 s⁻¹; kon [4]: 691000 M⁻¹ s⁻¹; Kd (GST-WASP(201–321) K232A): 134 nM; koff (GST-WASP(201–321) K232A): 0.0546 s⁻¹; kon (GST-WASP(201–321) K232A): 407000 M⁻¹ s⁻¹; Kd [5]: 79.2 nM; koff [5]: 0.042 s⁻¹; kon [5]: 540000 M⁻¹ s⁻¹; Kd (GST-WASP(201–321) K230A): 106 nM; koff (GST-WASP(201–321) K230A): 0.0498 s⁻¹; kon (GST-WASP(201–321) K230A): 477000 M⁻¹ s⁻¹; Kd [6]: 162 nM; koff [6]: 0.0684 s⁻¹; kon [6]: 422000 M⁻¹ s⁻¹; Kd [7]: 734 nM; koff [7]: 0.145 s⁻¹; kon [7]: 198000 M⁻¹ s⁻¹; Kd (GST-WASP(201–321) K225A): 83.5 nM; koff (GST-WASP(201–321) K225A): 0.0468 s⁻¹; kon (GST-WASP(201–321) K225A): 671000 M⁻¹ s⁻¹
